Measurements published in a protein production outcome set (Wang et al. 2014).

Experiment: label from the status in PepcDB records

| Sequence | protein production |
| --- | --- |
| MNNRKKNIQYLVYSKVIYRIGDVMFDFANNTFLAGLNPASLSLVAVYQSLESVIGVLFNLFGGVIADSFKRKKIIITTNILCGTACLVLSFLTKEQWLVYAIVLTNVILAFMSAFSSPSYKAFTKEIVKKDSISQLNSLLETTSTVIKVTVPMVAIFLYKLLGIHGVLLLDGLSFLIAALLISFILPVNDEVVIKEKVTIREIFNDLKIGFKYVYSHKSIFIITVLSALVNFFLAAYNLLLPYSNQMFGEISTGLYGTFLTAEAIGGFIGAILSGFVNKELSSMRLILFLSLSGLMLMLAPPFYIMFHNAIILALSPALFSLFLSIFNIQFFSLVQKDVDNDFLGRVFGIIFTITILFMPIGTGFFSVALNPNNSFNLFIIGSCITTLSLVFRILFKKYNIR | failed |
| AIAEPGSPAGAGAEAPAFYSERKLSRKQLKKLAKAEREYEEERRKELEAAQAVDTAQKRELARIESILRTHALRMEYVEPDGHCLFRALVRQLRPLIQSGLFDTYFPAADTETRSALLTWSTIPDEMEAVWLLRKTLASFIRRRGTEFFPFIVGELDPQGTLLDASDDPAERVAQYCARLEDGTLWGGQPELQAVALALRCRVFVFADPEILPNGMLVMGADDASTDTGAESVTALRVSFHKQFFSLGEHYHAVVPADDSRGDARDPRISAS | not failed |
| MGPAVKKASKGILSDVLKCLTNNIKHMREFTLAVVDKMVAGLSDFVDATHLLKPASNRSD | failed |
| MEKEMARLAAFDMDGTLLMPDHHLGEKTLSTLARLRERDITLTFATGRHALEMQHILGALSLDAYLITGNGTRVHSLEGELLHRDDLPADVAELVLYQQWDTRASMHIFNDDGWFTGKENPALLQAFVYSGFRYQIIDVKKMPLGSVTKICFCGDHDDLTRLQIQLYEALGERAHLCFSATDCLEVLPVGCNKGAALTVLTQHLGLSLRDCMAFGDAMNDREMLGSVGSGFIMGNAMPQLRAELPHLPVIGHCRNQAVSHYLTHWLDYPHLPYSPE | failed |
| DIVARLQTQASATVAIPKEHHRFVIGKNGEKLQDLELKTATKIQIPRPDDPSNQIKITGTKEGIEKARHEVLLISAEQDKR | not failed |
| MSLSTWISYTIACILLISPPGPTVTYLITTSMTHGKKTAYEIVWGSFWGGLVCLILSFIGIGAILKTSGTLYAILRLLGIAYLIYLGIKSFLDANKVKDKTEKMVPPEKGEAFKNGFLLIFLNPKNIIFFASFLPQFINHNSPFLLQTTILSLTYLIVGLINDYLYSFFASNIGNVLGKHSEKWIAYIGGVAMILSAIIVVFQNF | failed |
| MNGTELRETLEDLIKEVVQASREALDTQGELNERNEAALRTLEAQWRQRLIEELHEQGSLRVVLCRTDLLVPGSGATGTTTTNRTDPLRYVYETLRQRDPRERRRSLPPERSSQSSELEDTGTDSGEALSSGDDDDEISQVAGQPEPETANYVLSQYERVLAPSTNKQRIWRVFLRDAMVHINGQDLLLNQLQCQFDW | not failed |
| MVSNIDHKAMEALLRGQGCANNLKILLENGEISSVSTEPLIHTILDSFSLALSFMDSPNHPPYHESSSHNMASHMSRRSSKQKLCVAEGLVNYNHDSRTMCPNDGFTWRKYGQKTIKASAHKRCYYRCTYAKDQNCNATKRVQKIKDNPPVYRTTYLGKHVCKAFAVHDDTYSSTMIRFDQVVPEPIMPQLTTIDHQVITVEENSAEHIMNQECDINDYLVDDDPFWASQFPPFPSSDTMFLENISAFD | failed |
| MTNPLNSTAANRSNQPSSDGISDGQITNEEAESLINKKNCSGHKLKEVTDSDTFSDNGKDDSDTKKRFHYHQDQRRMSLTSIVAVESPSSSNAPSRKTIDLGHGSDLIYIQRFLPFQQSWTFFDYLDKHIPWTRPTIRVFGRSCLQPRDTCYVASSGLTALVYSGYRPTSYSWDDFPPLKEILDAIYKVLPGSRFNSLLLNRYKGASDYVAWHADDEKIYGPTPEIASVSFGCERDFVLKKKKDEESSQARNKPTFVWCEPAGKTGDSGPAKKRLKRSSREDQQSLTLKHGSLLVMRGYTQRDWIHSVPKRAKAEGTRINLTFRLVL | not failed |
| YTCSFVGHFSAGKSTLINLLIEQDILPSSPVPTTSNTAIVSVSDNHDIIANLPNQTYAKLSNYDEVREMNRQNVDVESVEINFQSAKFENGFTLQDTPGVDSNVASHQSITEQYMYTSNMIFYTVDYNHVQSELNFKFMKHINDVGIPVVFIINQIDKHQDDELS | failed |
| MSQMSPGQARVVDPILSTHARGYRQSTLIGKKLFPVAPVAQYGGKILTFGKEAFRLYNTKRAPGANTKRIDFGYEGDPYSIVPSALEAKVPRELMRDASQVPGIDLGARSVNTVLRIMALAHEHECAQIALDPAKYNADHKVKLVGSARWTSPDSDPTKDVETAKEAIADSIGMEPNRLMLSRKALSACKYHPKLIERVKYTRAESITIDMLKALWEVEEIVVGTARVATGANDSFGDVWGPDVWLGYVSDNPDPSVEEPSFGYTYQIEGHPLVEVPYWDNNAKSWIYGVSDDNTPALSGMLAGYLIEDAGLPAALEHHHHHH | not failed |
| MLEILMSLTAAICWAFNGIAYRKGVKDVSAFTANFHRTLFATVYFLPLALRDFPGVVIDLQTALVLVISAMLSFYIGDLSYFASLKRSPVSIALPASSTYPVYVVLLSTVIYGAELSLNALISAILVFVAVYIIYGSGEKGETSGLFYALLAAFSWALAILTLDFLTDRLPVSIVAFVRLLLCLILLSFTAKKDELSTEIRLFFRSVRGIFLLLGIMLFITAIKVSSSWNVVQPSSTSPVFAAIFGAIFLKERISFRLVAGIFVIILAILLLLLPPLQ | failed |
| MTQAFSRVRFIMTQPSHPGNVGSAARAIKTMGFGELVLVAPRFPDMTAQPEAVALASGALDVLERAAVHDTLEEALAPVTLAFALTARVRDLGPPPCDIREAAGLARRHLDDTEAGVVAIVLGTERAGLTNAQIELCHRICHIPANPQYSSLNVAQALQLAAWELRYALLAGTGQPLLPASSAQQANPGAAPADGAAVQALLAHWEQALVAVGFLDPAHPKKLMPRMKHLLTRSALSRDEVDMLRGVCTAMIAPNRPK | failed |
| GMINAHNHLPMIAFRGLGEEGISNRLFAYFFPLEAQKLSRELIYNATKLGAIDLAQSGVTTYADMYYHMDEMAKATKEVGLRAVLGETVIKFPVVDAKQPYGGIQYAKPFIEEYQNDPLITPAYAPHAVYTVSKEKLQEINQLSEDYDVPVLIHVAEFPNEEARIKDPTKATSPVEYLEEIGVLDERMVIAHGIHLSQHDQALLKQADAGVVYNPMANVKGATGIAPAWDMFRADMRVGLGTDGPMSSNQVDLWRTLSYAANMQRLKHSDRTIMIPEQVIEMATIGGAKALHMEDE | failed |
| EPVQLTVPQMLAQLQGTDTSLRYYAAWWLGKFGLETATAAERQAIVSALIAALADEADRTELGGYPLRRNAARALGKLGDRQAVPALIECLRCEDFYVREAAAIALGQLGDPRAIAPLQSLLEGGVAMARLVPGRPHLVQPVEAVIESLGHLGATEAIALIEPFLAHEMPRVQFAAARALFQLTGDAVYGDRLLAALNSEDVQLRRTALLDLGAMGYLPAAEAILQAGVEASFKLIALHGILGQQLRQAAPAEQTLSLFQGLDQLL | failed |
| MVKLNSNPSEKGTKPPSVEDGFQTVPLITPLEVNHLQLPAPEKVIVKTRTEYQPEQKNKGKFRVPKIAEFTVTILVSLALAFLACIVFLVVYKAFTYDHSCPEGFVYKHKRCIPASLDAYYSSQDPNSRSRFYTVISHYSVAKQSTARAIGPWLSAAAVIHEPKPPKTQGH | failed |
| MFSLSTQTMSAVAQRHPQTPISTITASNRQSSLHFKINSNNPEAHAQMRSGDEKGAIASITIEFQSVEQLHLHLGIMHLLSGDMKGAIEDFNQAILINPNYAEAYKGRGVAKVQLGDEKEAIEDLQKAADIFQEQEETAKYQEVINIIRQINDK | failed |
| PRAAGHSEEVLEREASFSLTTIDGEVISLNNVGGDVVILWFMAAWCPSCVYMADLLDRLTEKYREISVIAIDFWTAEALKALGLNKPGYPPPDTPEMFRKFIANYGDPSWIMVMDDGSLVEKFNVRSIDYIVIMDKSSNVLYAGTTPSLGELESVIKSVQGG | not failed |
| MPGSLRKMPVWLPIVILLVAMASIQGGASLAKSLFPLVGAPGVTALRLALGTLILIAFFKPWRLRFAKEQRLPLLFYGVSLGGMNYLFYLSIQTVPLGIAVALEFTGPLAVALFSSRRPVDFVWVVLAVLGLWFLLPLGQDVSHVDLTGCALALGAGACWAIYILSGQRAGAEHGPATVAIGSLIAALIFVPIGALQAGEALWHWSVIPLGLAVAILSTALPYSLEMIALTRLPTRTFGTLMSMEPALAAVSGMIFLGETLTPIQLLALGAIIAASMGSTLTVRKESKIKELDIN | failed |
| MIGVITSLTGGAILRNPAVLLIPLIYLVGRRSRDLTYLLFVMYTIITFQFVEVKELISYETIKTTLMAIIPSLLALKESIEGKKLQKTDLYYLPLFFLGVLRDYFYYLGLIIAGLLHIENFHSILIPAAVFSLIISPALVGELIELPGEYISIIMAGSLLVIYLVFQPTRR | failed |
| MEKPIKTQWQLLMDNRNRFFWLLQAGGWIGYALVNYIGSLMHEMRDIYTLIIILGAYAGFLSTIPLRYLYRRIWEFPPALMVLIAIVVSYVTAVAWAIVDNATYWEIYKFGFRPDSPFFYLKNSLAKFYIILSWSGLYFGIKYYQMLQEEKQKALLASSMAHQAQLKMLRYQLNPHFLFNTLNAISTLILLKENEKANLMVNKLSHFLRFSLDNEPIKKVTLEKEVDALLLYLDIEKVRFDEQLEIDIHLSDETKNALVPSLICQPLIENSIKYAISNVEGVGKIRVRSWSEKENLILEVCDNGPKIETDPEKLFRKDGVGLNNTRQRLKSLYGKQYRFEMLKGAESGLCVRITIPMEMLESQR | failed |
| MKEKDKWIKNFRTRMEGYSEPAPADLWEQLEKELDTVPKVIPMWRRWQAVAAVALLVVVSSLTVWFWQSPSANYLEKQSAELNVMHEPDELVPGSITPEQPMALVVPAARSGKKQHVKVGGVAKAEALAAEQEVLLNKEVEEIQIEENYIEEQKEESVIVEQKQQKQAGRSSYSAAKTNYAYVAPHRKKDRNWSVGLSTGNGTFSSSTSMDGYLPLPNGTRNATMNSAYGVETRAEIDKLVQFNNLSEGKDAQSDIKYRMPVTFGASLRFDLSDDWAVETGVTYTQLSSETRSGTEKNNYGWEEKLHYVGIPLKVNRNIWSNKRFEVYASAGGAVEKCVSGKRSIIGSVSTSNAGKDEQFSGGEENVKVKPLQWSLSAAAGAQFKITEKLGIYAEPGVVYYFDDGSNVNTIRKEHPFNFNIQLGVRFTLPK | failed |
| PFYTQGDSLTSEDHLDDTWVTVFGFPQASASYILLQFAQYGNILKHVMSNTGNWMHIRYQSKLQARKALSKDGRIFGESIMIGVKPCIDKNVMENSDRGVLSSPSL | not failed |
| LKPERVITKNSGASLIDLGDDVALLEFHSPNNSIGFDVVQMINKAVDEVEANYKGLVIGNQGKNFCVGANLMMILMEAQDDNFFEIDMVVRQFQQAMAKIRYSQKPVVSAPFAMTLGGGTEICLPTASIQASLETYMGLVEVGVGVIPGGGGNKELYLRHLERLPEGANIDLQSIANKTFETIAMAKVSTSAHEAMENGFLSERDGVVVNGDHLLYQAKQQVIHLHDAG | failed |
| MKITVFGATGNVGNRVITEALLRGHEITAVLRNNARANEFDSSVKVVIGHADNVDDVVKWSDGQDLIISATRPPQGLESQLVDTAKALLSGLAQTKVRLLLVGGAASLTVPNSNGMLVVDDTDLVPTAWRDIALACLAQHKLCQENESVDWSYISPPAVIVPGERTGIFRTGSDELLVDEQGQSTISLEDFAIALLDEAEVVKHKRKRFTVAYLEHHHHHH | failed |
| MFKVTFAFENGSEVEAFANAGDNLLEVARGANVAIDAPCSGNGACGKCRVQLKGGELDSKKTLHISDEEFEKGWRLACMSKICADVEVLVPDIASAYKSRMKVA | failed |
